Results taken from the nanobody polyreactivity screen of Harvey et al. (2022).

Test: yeast display, Sf9 membrane polyspecificity reagent, FACS + sequencing; frameworks hold sequencing errors
Method in brief: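 Nanobodies came from a synthetic yeast display library in Saccharomyces cerevisiae BJ5465, induced with galactose for 36–48 hours and stained for 1 hour at 4 °C with 10% biotinylated, detergent-solubilized Sf9 membrane reagent. Cells were enriched on streptavidin microbeads and then FACS-sorted, with low and high (top ~1%) gates set on anti-HA fluorescence for expression and streptavidin fluorescence for reagent binding. Each polyreactivity label reflects the gate a clone came from. Genes were amplified by colony PCR, sequenced by MiSeq 2 × 250 and filtered by CDR length.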

| Sequence | polyreactivity (PSR sort gate) |
| --- | --- |
| QVQLVESGGGLVQAGGSLRLSCAASGFIFPRYAMGWYRQAPGQERELVAAISKSGGRTYYADSGKGRFTISRDYAKNTFYLQMNSLNPEDTAVYYCAAGRISRFSRYYYWGQGTQVTVSS | high polyreactivity |
| QVQLVESGGGLVQAGGSLRLSCAASGITFAFYAMGWYRQAPGKERELVAAISWSGTRTYYADSVKGRFTISRDNAKNTVYLQMNSLKPEDSAVYYCAADYQAGDKLYDYWGQGTQVTVSS | low polyreactivity |
| QVQLVESGGGLVQAGGSLRLSCAASGFIFRLYDMVRYRQAPGKERELVAAISSGGRTNYADSVKGRFTISSDNPKNTVYLQMNSLKPEDTAVYYCAARSIFGYRSYGYWGQGTQVTVSS | high polyreactivity |
| QVQLVESGGGLVQAGGSLRLSFAASGRTFVLYTMGWYRQAPGKERELVAAISVGGALTYYADSVRGRFTISRDNAKNTVYLQMNSLKPEDSAVYYCAARRHSRVKYRDYWGQGTQVTVSS | high polyreactivity |
| QVQLVESGGGLVQAGGSLRLSCAASGSIFKWYTMGWYRQAPGKERELVAGISRGGSTYYADSVKGRFTISRDNAKNTVYLQMNSLKPEDTAVYYCAKASAIWRGDVKYYYWGQGTQVTVSS | high polyreactivity |
| QVQLVESGGGLVQAGGSLRLSCAASGFIFDSYAMGCYRQAPGKETELVAAISYSGGNTYYADSVKGRFTISRDNAQITVYLQMNSLKPEDTAFYYCAAEWSDSRWWRLWWYGEDDYWGQGTQVTVSS | high polyreactivity |
| QVQLVESGGGLVQAGVSLRLSCAASARIFSGYAMGWYRQAPGKEREFVAAITSSGRTKYADSVKGRFTISRDNATNTVYLQMNSLKPEDTAVYYCAAYFGYDWPEYDYWRQGTQVTVSS | high polyreactivity |
| QVQLVDSGGGLVQAGGSLRLSCAASGRTFATYAMGWNRQAPGKERELVAAISSGGSTYYADSVKGRFTISRDNAKNNVYLQMNRLKPDDTAVYYCAAEVWFPDRWMDYWGQGTQVTVSS | high polyreactivity |
| QVQLVESGGGLVQAGGSLRLSCAASGRIFGWYAMGWYRQAPGKERELVADIRYRGGSTYYADSVKGRFTISRDNAKNTVYLQMHSLKPEDTAVYYCAALGFVPVPYDYWGQGTQVNVSS | low polyreactivity |
| QVQLVESGGGLVQAGGSLRLSCAASGFIFRGYAMGWYRQAPGKERELVAAITGGGGRTYYADSVKGRFTISRDNAKNTVYLQMNSLKPEDTAVYYCARRFAYSFDYGYWGQGTQVTVSS | high polyreactivity |
| QVQLVESGGGLVQAGGSLRLSCAASGFTFRRYAMGWYRQAPGKERELVAAISYGGGRTYYAESVKGRFTISRDNAKNTVYLQMNSLKPEDTAVYYCAADVLSRYVGEADYWGQGTQVTVSS | high polyreactivity |
| QVQLVESGGGLVQAGGSLRLSCAASGFNFPRYVMGWYRQAPGKERELVAAINSDISTNYADSVKGRFTISRDNANNSVYLQMTSLKPEDTAVFYCADERWDDPWEFDSWGQCTQVTVSS | low polyreactivity |
| QVQLVESGGGLVQAGGSLRISCAASGRTFSGNAMGWYRQAPGKERELVAAISSGGSTNYADSVKGRFTISRDNAKNTVYLQMNSLKPEDTAVYFCARDAYLPRIADGDGRYELVDYWGHGTQVTVSS | low polyreactivity |
| QVQIVESGGGLVQEGGSLRLRCAASGFTFGYYRMGWYRQAPGKERELVAAISRSAGSTYYADSVKGRFTISRDNAKNTVYLQMNSLKPEDTAVYYCNAAVFRTEGGYSTFNYWGQGSQVTVSS | high polyreactivity |
| QVQLVESGGGLVQAGGSLGLSCAASGRTFAKYAMGWYRQAPGKERELVAAITRGDTTNYADSVKGRFTISRDNAKNTGYLQMHRLKPEDTAVYYCAATPDPPHTYEYWGQVTQVTVSS | low polyreactivity |
| QVQLVDSGGGLVQAGGSLRLSCAASGFIFYKYAMGWYRQATGKERELVAAISKRGGSTYYADSVKGRFTISRDNAKNTVYLQMNSLKPEYTAVYDCATDGGYSDTVRYVASDYWGQGTQVTVSS | high polyreactivity |
| QVQLVESGGGLLQAGRSLRLTCAASGRTFRAYAMGWYRQAPGKEMELVASISRRGGSTYYADSVKGRFTISRDNAKNSVYLQMNSLKPEDTAVSYCAASDKYLQYDYWGQGSQVTVSS | high polyreactivity |
| QVQLVESGGGLVQAGGSLRITCAASGSTFGPYVMGWYRQAPGKEMELVAAISLSGASTYYADSVKGRFTISRDNAKNNVYLQMISLKPEETAVYYCAAQTPYGMYYWGQGTQVTVSS | low polyreactivity |
| QVQLVESGGGLVQAGGSLRLSCAASGNTYGRYAMGWYRQAPGKERELVAAISSSGTSTYYADSVKGRFTISRDNAKNTVYLQMNSLKPVDTAVYNCGAVYWTFWGTIASRYDYWGQGTQVTVAS | high polyreactivity |
| QVQLVESGGGLVQAGGSLRLSCAASGRIYGDYAMGWYRQAPGKERELVARITWSGTGTYYADSVKGRFTISRDNAKNTVYLQMNSLKPEDTAVYYCNADWQVKWYYYWGQVTQVTVSS | low polyreactivity |
| QVQLVESGGGLVQAGGSLRLSSAASGRIFSDYAMGWYRQAPGKERELVATITSGDSTNYGDSVKGRFTISRDNAKNTVYLQMNSLKTESTEVYYCNAERFPDYDYWGQGTQVTVSS | low polyreactivity |
| QVQLVESGGGLVQAGGSLLLSCAASGSTFGANAMGWYRQAPGKEREFVAAISRSGVRTYYADSVKGRFTISRDNAKNTVYLQMNSLKPEDTAVYYCAADGYWWTYTRYDYWGQGTQVTVSS | low polyreactivity |

| Sequence | polyreactivity (PSR sort gate) |
| --- | --- |
| QVQLVESGGGLVQAGGSLRLSCAASGRIFTYYDMGWYREAPGKERELVAAITWGGGSTYYADSVKGRFTISRDNAKNSVYLQMNSLKPEDSAVYYCATLYYTFVWRHDYWGQGTQVTVSS | low polyreactivity |
| QVQLVESGGGLVQAGGSLRLSCPASGSIFNKNAMGWYRQAPGKERELVAAISSGGSTYYADSVKGRFTISRDNAKNTVYLQMNSLKPEDTAVYYCARGASFYQKFYYWGQGTQVTVSS | high polyreactivity |
| QVQLVESGGGLVQAGGSLRLSCAASGSIFGTNAMGWYRQAPGKERELVAAIDGGSTTYYADSVKGRFTISRDNAKNTVYLQMNSLKPEDTAVYYCAADGTRYLNDEGYAGYEYWGQGTQVTVSS | low polyreactivity |
| QVQLVESGGGLVQAGGSLRISCAASGRTFPGNAMGWYRQAPGKERELVAAISWSGTRTYYADSVKGRFTISRDNAKNTVYLQMNSLKPEDTAVYYCNVVVKGAWDYYPYDYWGQGTQVTVSS | high polyreactivity |
| QDQLVESGGGLVQAGGSLGLSCAASGSIFGFYDMGWSRQAPGKERELVAAITSGDSTHYADSVKGRFTISRDNAQNTVYVQMNSLKPVDTAVYYCAASAPYRYYRSAYYSWGQGTQVTVSS | low polyreactivity |
| QVQLVESGGGLVQAGGSLRLSCAASGFIFGGYAMGWYRQAPGKERELVAAISYGGGSTYYADSVNGRFTISRYNAKNTVYLQMNSLKPEDTAVYYCAADIPGYRYTGYRRGYWGQGTQVTVSS | high polyreactivity |
| QVQLVETGGGLVQAGGSLRLSCAASGFTFSYYAMGWYRQAPGKERELVAAISWSGGSTYYADSVKGRFTISRDNAKNTVYLLMNSLKPEDTAVYYSNKVGRAIGPYDYWGQGTQVTVSS | high polyreactivity |
| QVQLVESGGGLVQAGGSLRISCAASGITFSYYAMGWYTPAPGKERELVAAINSGGGSTYYADSVKGRFTISRDNAKNTVYLQMNSLKPEDTAVYYCSARYRSRYDYYYDRDYWGQGTQVTVSS | low polyreactivity |
| QVQLVESGGGLVQAGGSLRLSCAASGSTFAPNAMGWYRQAPGKERELVAAIRFDTGSTYYADSVKGRFTISRDNAKNTVYLQMNSLKPEDTAVYYCAAYNHYLSESDYWGQGTQVTVSS | low polyreactivity |
| QVQLVESGGGLVQAGGSLRLSCAASGSIFDYYAMGWYRQAPGKERELVAAISSSGDTTYYADSVKGRFTISRDTAKNTVYLQMNSLKPEDTAVYYCAARVRGYRHASNYYWGQGTQVTVSS | high polyreactivity |
| QVQLVESGGGLVQAGGSLRLSCAASGFTFYRYDMGWYRQAPGKERELVAAITNNGGKTYYADSVKGRITISRDNAKYSDYLQMNSLKPVDTAVYYSAAEFYWGDLSYWGQGTQVTVSS | high polyreactivity |
| QDHLVETGGGLVQAGGSLRLSCAASGRTLYINAMGWYRQAPGKERELVAAIRRGGSTYADSVKGRFTISRDNAKNTVYLQMNRLKPEDTAVYYCAADVPSGKYKGDYWGQGTQVTVSS | high polyreactivity |
| QVQLVESGGGLVQAGGSLRLSCAASVSNIKYNAMGWYRQAPGKERELVAAISSSGGTTYYADSVKGRFTISRDNAKNTVYLQMNSLKPEDTAVYYCNKYFRAGNGYGEEDYWGQGTQVTVSS | high polyreactivity |
| QVQLVESGGGLVQAGGSLRISCAASGSTFAGNAMGWYRQAPGKERELVAAIDSSTGSTYYADSVKGRFTISRDNAKNTVYLQMNSLKPEDTAVYYCNKTSFLVKLDYWGQGTQVTVSS | low polyreactivity |
| QVQLVESCGGLVQAGGSLRLSCAASGLTFYRYAMGWYRQAPGKERELVAAISSADRTYYADSVKGRFTISRDNAKNTVYLQMNSLKPEDTAVYYCAARANYFGWTKSYYYWGQGTQVNVSS | high polyreactivity |
| QVQLVESGGGLVQAGGSLRLSCAASGSIFQYNAMGWYRPAPGKERELVAAISSRGGITYYADSVKGRFTISRDNAKNTVYLQMNSMKPEDTAVYDCAAVAYYSEVRWYEYWGQGTQVTVSS | high polyreactivity |
| QVQLVESGGGLVQAGGSLRLSCAASGSIFEVNAMGWYRQAPGKERELVAAISCSGGSTYYADSVKGRFTISRDNAKNTVYLQMNSLKPEDTAVYYCAADWRQGLWYGYYYWGQGTQVTVSS | low polyreactivity |
| QVQLVESGGGLVQAGGSLRLSCAASGSIFATYAMGWYRQAPGKERELVAAISSSGSRTYYADSVKGRFTISRDNAKNTVYLQMNSLKPEDTAVYYCAKAYLSPYQYDYWGQGTQVTVSS | high polyreactivity |
| QVQLVESGGGLVQAGGSLRLSCAASGSIFEYNTMGWYRQAPGKERELVATISWSGDSTYYADSVKGRFTISRDNAKNTVYLQMNSLKPEDTAVYYCAAQRGAPVDGKSDYWGQGTQVIVSS | low polyreactivity |
| QVQLVESGGGLVQAGGSLRISCAASGFSCRQYAMGWYRQAPGKERELVAAISSSGGRTYYADSVKGRFTISRDNAKNTVYLQMNSLKPEDTAVYYCIARAWLRVEYGEGYWGQGTQVTVSS | high polyreactivity |
| QVQLVESGGGLVQAGGSLRLSCAASGSIFRTYAMGWYRQAPGKERELVATITFGGVSTYYADSVKGRFTISRDNAKITVYLQMNSLKPEDTAVYYCAADVYTRFWRVYRFDYWGQGTQVTVSS | low polyreactivity |
